The values below are quoted from earlier work in PMC3490216.

pKd: −log10 of the molar value.

For data set [1], the target named is VPAC1 receptor (UniProt P32241).
Data set [2] deals with VPAC2 receptor (UniProt P41587).
Chain of UniProt P41587 (P41587 24-438): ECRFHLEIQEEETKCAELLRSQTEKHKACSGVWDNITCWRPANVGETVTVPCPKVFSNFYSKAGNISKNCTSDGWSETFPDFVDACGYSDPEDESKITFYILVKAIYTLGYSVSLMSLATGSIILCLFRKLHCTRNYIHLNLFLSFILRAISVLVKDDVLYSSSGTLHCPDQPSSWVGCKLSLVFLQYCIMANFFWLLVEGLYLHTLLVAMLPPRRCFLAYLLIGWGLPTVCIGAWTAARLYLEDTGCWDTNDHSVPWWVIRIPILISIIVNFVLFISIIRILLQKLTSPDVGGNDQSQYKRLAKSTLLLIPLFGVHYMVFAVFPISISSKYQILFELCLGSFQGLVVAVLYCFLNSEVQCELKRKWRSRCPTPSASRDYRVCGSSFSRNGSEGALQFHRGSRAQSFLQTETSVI

Chain of UniProt P32241 (P32241 31-457): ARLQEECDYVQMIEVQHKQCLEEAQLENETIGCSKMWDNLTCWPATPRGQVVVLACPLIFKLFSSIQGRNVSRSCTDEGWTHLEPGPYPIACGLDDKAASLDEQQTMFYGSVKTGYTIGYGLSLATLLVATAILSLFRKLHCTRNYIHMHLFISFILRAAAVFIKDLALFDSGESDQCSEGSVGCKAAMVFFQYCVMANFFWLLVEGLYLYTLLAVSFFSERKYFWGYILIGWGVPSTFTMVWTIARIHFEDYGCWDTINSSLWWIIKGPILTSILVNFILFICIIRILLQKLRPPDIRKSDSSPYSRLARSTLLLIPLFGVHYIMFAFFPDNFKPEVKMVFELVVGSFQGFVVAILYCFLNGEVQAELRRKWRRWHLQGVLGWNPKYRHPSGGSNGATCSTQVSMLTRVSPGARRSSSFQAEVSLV

One may read the pKd as the negative decadic logarithm of the Kd, by convention in mol/L. Take VIP (from UniProt P01282): the pKd in data set [1] and in data set [2] was 8.52 in each case.
